The target in the experiment is Recombinant HIV-1 integrase from pRP1012 with the His6 tag removed by thrombin (HIV-1) (UniProt P04585). The experiment is described as follows: cell-based or functional assay.

The values below come from patent US7514233.

Take “His6-tagged Inip76/LEDGF expressed in E. coli from pCP6H75 (pRSETB) (from UniProt O75475 2-530)”: the IN protein remaining soluble after 45 minutes incubation at 4° C. and centrifugation at 20000 g came to 50%.
